Reference: patent US20180086810A1, “T CELL RECEPTOR FUSIONS AND CONJUGATES AND METHODS OF USE THEREOF” (ALTOR BIOSCIENCE CORPORATION, priority 2000, published 2018)

How the values were obtained:
[1] = target: 149 peptide/HLA-A2 complex on T2 cells (human); test: cell-based or functional assay
[2] = target: 264 peptide/HLA-A2 complex on T2 cells (human); test: cell-based or functional assay

conjugation between CTLL-2 cells and peptide-loaded T2 cells (flow cytometry, percent conjugates) [1]: 0.88% | conjugation between CTLL-2 cells and peptide-loaded T2 cells (flow cytometry, percent conjugates) [2]: 3.25%
Substance: 264 scTCR-IL-2 fusion protein (from UniProt P60568 21-153)
